Test results: the supplement of paper PMC5998384

Tests used:
[1] = system: HeLa Kyoto; test: melting temperature (median over replicates), in situ; higher = more thermally stable
[2] = system: HeLa Kyoto; test: solubility change mitosis vs G1/S (difference of NP-40 vs SDS log2 ratios) (log2 ratio difference); higher = more soluble in mitosis
[3] = system: HeLa Kyoto; test: solubility in G1/S (NP-40 vs SDS abundance) (log2 ratio); higher = more soluble; details: cell cycle stage: G1/S
[4] = system: HeLa Kyoto; test: thermal stability score vs G1/S (z-score of summed log2 fold changes over temperatures); higher = more thermally stable than in G1/S
[5] = cell cycle stage: early G1 (4.5 h after nocodazole release)
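Wherever melting temperature (median over replicates), in situ is given: HeLa Kyoto cells synchronized by double thymidine or nocodazole block, proteins quantified by TMT10plex mass spectrometry, three independent biological replicates.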
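Wherever solubility change mitosis vs G1/S (difference of NP-40 vs SDS log2 ratios) is given: synchronized HeLa Kyoto cells (double thymidine block for G1/S, nocodazole release for mitosis), protein amounts in NP-40 versus SDS lysates quantified by mass spectrometry, three biological replicates.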
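Wherever solubility in G1/S (NP-40 vs SDS abundance) is given: HeLa Kyoto cells arrested at G1/S by double thymidine block, proteins quantified by TMT10plex mass spectrometry in mild NP-40 versus SDS extracts, three biological replicates.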
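Wherever thermal stability score vs G1/S (z-score of summed log2 fold changes over temperatures) is given: synchronized HeLa Kyoto cells, proteins quantified by TMT10plex mass spectrometry, three biological replicates, mitosis taken 0.5 h after nocodazole release, G1/S directly after double thymidine block.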

Row | Sequence | melting temperature ([1]; cell cycle stage: G1/S) | melting temperature ([1]; cell cycle stage: mitosis) | solubility change mitosis (log2) [2] | solubility in G1/S (log2) [3] | thermal stability score [4, 5] | thermal stability score ([4]; cell cycle stage: mitosis)
1 | MSEPIRVLVTGAAGQIAYSLLYSIGNGSVFGKDQPIILVLLDITPMMGVLDGVLMELQDCALPLLKDVIATDKEDVAFKDLDVAILVGSMPRREGMERKDLLKANVKIFKSQGAALDKYAKKSVKVIVVGNPANTNCLTASKSAPSIPKENFSCLTRLDHNRAKAQIALKLGVTANDVKNVIIWGNHSSTQYPDVNHAKVKLQGKEVGVYEALKDDSWLKGEFVTTVQQRGAAVIKARKLSSAMSAAKAICDHVRDIWFGTPEGEFVSMGVISDGNSYGVPDDLLYSFPVVIKNKTWKFVEGLPINDFSREKMDLTAKELTEEKESAFEFLSSA [MDH1] | 57.2 °C | 56.8 °C | -0.111 | 0.43 | -0.848 | 0.036
2 | MTGQGQSASGSSAWSTVFRHVRYENLIAGVSGGVLSNLALHPLDLVKIRFAVSDGLELRPKYNGILHCLTTIWKLDGLRGLYQGVTPNIWGAGLSWGLYFFFYNAIKSYKTEGRAERLEATEYLVSAAEAGAMTLCITNPLWVTKTRLMLQYDAVVNSPHRQYKGMFDTLVKIYKYEGVRGLYKGFVPGLFGTSHGALQFMAYELLKLKYNQHINRLPEAQLSTVEYISVAALSKIFAVAATYPYQVVRARLQDQHMFYSGVIDVITKTWRKEGVGGFYKGIAPNLIRVTPACCITFVVYENVSHFLLDLREKRK [SLC25A32] | 56.8 °C | 56.7 °C | -0.12 | -0.199 | -0.577 | 0.155
3 | MSSNCTSTTAVAVAPLSASKTKTKKKHFVCQKVKLFRASEPILSVLMWGVNHTINELSNVPVPVMLMPDDFKAYSKIKVDNHLFNKENLPSRFKFKEYCPMVFRNLRERFGIDDQDYQNSVTRSAPINSDSQGRCGTRFLTTYDRRFVIKTVSSEDVAEMHNILKKYHQFIVECHGNTLLPQFLGMYRLTVDGVETYMVVTRNVFSHRLTVHRKYDLKGSTVAREASDKEKAKDLPTFKDNDFLNEGQKLHVGEESKKNFLEKLKRDVEFLAQLKIMDYSLLVGIHDVDRAEQEEMEVEERAEDEECENDGVGGNLLCSYGTPPDSPGNLLSFPRFFGPGEFDPSVDVYAMKSHESSPKKEVYFMAIIDILTPYDTKKKAAHAAKTVKHGAGAEISTVNPEQYSKRFNEFMSNILT [PIP4K2B] | 50.1 °C | 49 °C | -0.163 | 0.335 | 0.758 | -0.395
4 | MWIQVRTIDGSKTCTIEDVSRKATIEELRERVWALFDVRPECQRLFYRGKQLENGYTLFDYDVGLNDIIQLLVRPDPDHLPGTSTQIEAKPCSNSPPKVKKAPRVGPSNQPSTSARARLIDPGFGIYKVNELVDARDVGLGAWFEAHIHSVTRASDGQSRGKTPLKNGSSCKRTNGNIKHKSKENTNKLDSVPSTSNSDCVAADEDVIYHIQYDEYPESGTLEMNVKDLRPRARTILKWNELNVGDVVMVNYNVESPGQRGFWFDAEITTLKTISRTKKELRVKIFLGGSEGTLNDCKIISVDEIFKIERPGAHPLSFADGKFLRRNDPECDLCGGDPEKKCHSCSCRVCGGKHEPNMQLLCDECNVAYHIYCLNPPLDKVPEEEYWYCPSCKTDSSEVVKAGERLKMSKKKAKMPSASTESRRDWGRGMACVGRTRECTIVPSNHYGPIPGIPVGSTWRFRVQVSEAGVHRPHVGGIHGRSNDGAYSLVLAGGFADEVDRGDEFTYTGSGGKNLAGNKRIGAPSADQTLTNMNRALALNCDAPLDDKIGAESRNWRAGKPVRVIRSFKGRKISKYAPEEGNRYDGIYKVVKYWPEISSSHGFLVWRYLLRRDDVEPAPWTSEGIERSRRLCLRLQYPAGYPSDKEGKKPKGQSKKQPSGTTKRPISDDDCPSASKVYKASDSAEAIEAFQLTPQQQHLIREDCQNQKLWDEVLSHLVEGPNFLKKLEQSFMCVCCQELVYQPVTTECFHNVCKDCLQRSFKAQVFSCPACRHDLGQNYIMIPNEILQTLLDLFFPGYSKGR [UHRF2] | 44.3 °C | 46.9 °C | 0.175 | -0.401 | 2.81 | 4.34
5 | MRKMLAAVSRVLSGASQKPASRVLVASRNFANDATFEIKKCDLHRLEEGPPVTTVLTREDGLKYYRMMQTVRRMELKADQLYKQKIIRGFCHLCDGQEACCVGLEAGINPTDHLITAYRAHGFTFTRGLSVREILAELTGRKGGCAKGKGGSMHMYAKNFYGGNGIVGAQVPLGAGIALACKYNGKDEVCLTLYGDGAANQGQIFEAYNMAALWKLPCIFICENNRYGMGTSVERAAASTDYYKRGDFIPGLRVDGMDILCVREATRFAAAYCRSGKGPILMELQTYRYHGHSMSDPGVSYRTREEIQEVRSKSDPIMLLKDRMVNSNLASVEELKEIDVEVRKEIEDAAQFATADPEPPLEELGYHIYSSDPPFEVRGANQWIKFKSVS [PDHA1] | 52.1 °C | 51.5 °C | -0.122 | 0.149 | -1.47 | -2.37
6 | MAMRQTPLTCSGHTRPVVDLAFSGITPYGYFLISACKDGKPMLRQGDTGDWIGTFLGHKGAVWGATLNKDATKAATAAADFTAKVWDAVSGDELMTLAHKHIVKTVDFTQDSNYLLTGGQDKLLRIYDLNKPEAEPKEISGHTSGIKKALWCSEDKQILSADDKTVRLWDHATMTEVKSLNFNMSVSSMEYIPEGEILVITYGRSIAFHSAVSLDPIKSFEAPATINSASLHPEKEFLVAGGEDFKLYKYDYNSGEELESYKGHFGPIHCVRFSPDGELYASGSEDGTLRLWQTVVGKTYGLWKCVLPEEDSGELAKPKIGFPETTEEELEEIASENSDCIFPSAPDVKA [STRAP] | 52.3 °C | 52.2 °C | -0.127 | 0.14 | -1.2 | -3.1
7 | MARELRALLLWGRRLRPLLRAPALAAVPGGKPILCPRRTTAQLGPRRNPAWSLQAGRLFSTQTAEDKEEPLHSIISSTESVQGSTSKHEFQAETKKLLDIVARSLYSEKEVFIRELISNASDALEKLRHKLVSDGQALPEMEIHLQTNAEKGTITIQDTGIGMTQEELVSNLGTIARSGSKAFLDALQNQAEASSKIIGQFGVGFYSAFMVADRVEVYSRSAAPGSLGYQWLSDGSGVFEIAEASGVRTGTKIIIHLKSDCKEFSSEARVRDVVTKYSNFVSFPLYLNGRRMNTLQAIWMMDPKDVREWQHEEFYRYVAQAHDKPRYTLHYKTDAPLNIRSIFYVPDMKPSMFDVSRELGSSVALYSRKVLIQTKATDILPKWLRFIRGVVDSEDIPLNLSRELLQESALIRKLRDVLQQRLIKFFIDQSKKDAEKYAKFFEDYGLFMREGIVTATEQEVKEDIAKLLRYESSALPSGQLTSLSEYASRMRAGTRNIYYLCAPNRHLAEHSPYYEAMKKKDTEVLFCFEQFDELTLLHLREFDKKKLISVETDIVVDHYKEEKFEDRSPAAECLSEKETEELMAWMRNVLGSRVTNVKVTLRLDTHPAMVTVLEMGAARHFLRMQQLAKTQEERAQLLQPTLEINPRHALIKKLNQLRASEPGLAQLLVDQIYENAMIAAGLVDDPRAMVGRLNELLVKALERH [TRAP1] | 52.8 °C | 52.7 °C | -0.149 | -0.0668 | 1.66 | -0.668
8 | MTAPCPPPPPDPQFVLRGTQSPVHALHFCEGAQAQGRPLLFSGSQSGLVHIWSLQTRRAVTTLDGHGGQCVTWLQTLPQGRQLLSQGRDLKLCLWDLAEGRSAVVDSVCLESVGFCRSSILAGGQPRWTLAVPGRGSDEVQILEMPSKTSVCALKPKADAKLGMPMCLRLWQADCSSRPLLLAGYEDGSVVLWDVSEQKVCSRIACHEEPVMDLDFDSQKARGISGSAGKALAVWSLDWQQALQVRGTHELTNPGIAEVTIRPDRKILATAGWDHRIRVFHWRTMQPLAVLAFHSAAVQCVAFTADGLLAAGSKDQRISLWSLYPRA [GNB1L] | 54.6 °C | 54.2 °C | -0.205 | 0.0814 | -0.681 | -0.0471
9 | MPGVIPSESNGLSRGSPSKKNRLSLKFFQKKETKRALDFTDSQENEEKASEYRASEIDQVVPAAQSSPINCEKRENLLPFVGLNNLGNTCYLNSILQVLYFCPGFKSGVKHLFNIISRKKEALKDEANQKDKGNCKEDSLASYELICSLQSLIISVEQLQASFLLNPEKYTDELATQPRRLLNTLRELNPMYEGYLQHDAQEVLQCILGNIQETCQLLKKEEVKNVAELPTKVEEIPHPKEEMNGINSIEMDSMRHSEDFKEKLPKGNGKRKSDTEFGNMKKKVKLSKEHQSLEENQRQTRSKRKATSDTLESPPKIIPKYISENESPRPSQKKSRVKINWLKSATKQPSILSKFCSLGKITTNQGVKGQSKENECDPEEDLGKCESDNTTNGCGLESPGNTVTPVNVNEVKPINKGEEQIGFELVEKLFQGQLVLRTRCLECESLTERREDFQDISVPVQEDELSKVEESSEISPEPKTEMKTLRWAISQFASVERIVGEDKYFCENCHHYTEAERSLLFDKMPEVITIHLKCFAASGLEFDCYGGGLSKINTPLLTPLKLSLEEWSTKPTNDSYGLFAVVMHSGITISSGHYTASVKVTDLNSLELDKGNFVVDQMCEIGKPEPLNEEEARGVVENYNDEEVSIRVGGNTQPSKVLNKKNVEAIGLLGGQKSKADYELYNKASNPDKVASTAFAENRNSETSDTTGTHESDRNKESSDQTGINISGFENKISYVVQSLKEYEGKWLLFDDSEVKVTEEKDFLNSLSPSTSPTSTPYLLFYKKL [USP1] | 48.8 °C | – | -0.0658 | -0.118 | 0.238 | 1.6
10 | MANNSPALTGNSQPQHQAAAAAAQQQQQCGGGGATKPAVSGKQGNVLPLWGNEKTMNLNPMILTNILSSPYFKVQLYELKTYHEVVDEIYFKVTHVEPWEKGSRKTAGQTGMCGGVRGVGTGGIVSTAFCLLYKLFTLKLTRKQVMGLITHTDSPYIRALGFMYIRYTQPPTDLWDWFESFLDDEEDLDVKAGGGCVMTIGEMLRSFLTKLEWFSTLFPRIPVPVQKNIDQQIKTRPRKIKKDGKEGAEEIDRHVERRRSRSPRRSLSPRRSPRRSRSRSHHREGHGSSSFDRELEREKERQRLEREAKEREKERRRSRSIDRGLERRRSRSRERHRSRSRSRDRKGDRRDRDREREKENERGRRRDRDYDKERGNEREKERERSRERSKEQRSRGEVEEKKHKEDKDDRRHRDDKRDSKKEKKHSRSRSRERKHRSRSRSRNAGKRSRSRSKEKSSKHKNESKEKSNKRSRSGSQGRTDSVEKSKKREHSPSKEKSRKRSRSKERSHKRDHSDSKDQSDKHDRRRSQSIEQESQEKQHKNKDETV [PRPF38B] | 50 °C | 50.6 °C | 0.407 | -0.989 | 0.848 | 1.5
11 | MLEEAGEVLENMLKASCLPLGFIVFLPAVLLLVAPPLPAADAAHEFTVYRMQQYDLQGQPYGTRNAVLNTEARTMAAEVLSRRCVLMRLLDFSYEQYQKALRQSAGAVVIILPRAMAAVPQDVVRQFMEIEPEMLAMETAVPVYFAVEDEALLSIYKQTQAASASQGSASAAEVLLRTATANGFQMVTSGVQSKAVSDWLIASVEGRLTGLGGEDLPTIVIVAHYDAFGVAPWLSLGADSNGSGVSVLLELARLFSRLYTYKRTHAAYNLLFFASGGGKFNYQGTKRWLEDNLDHTDSSLLQDNVAFVLCLDTVGRGSSLHLHVSKPPREGTLQHAFLRELETVAAHQFPEVRFSMVHKRINLAEDVLAWEHERFAIRRLPAFTLSHLESHRDGQRSSIMDVRSRVDSKTLTRNTRIIAEALTRVIYNLTEKGTPPDMPVFTEQMQIQQEQLDSVMDWLTNQPRAAQLVDKDSTFLSTLEHHLSRYLKDVKQHHVKADKRDPEFVFYDQLKQVMNAYRVKPAVFDLLLAVGIAAYLGMAYVAVQHFSLLYKTVQRLLVKAKTQ [NCLN] | 53.9 °C | 53.7 °C | -0.129 | 0.0995 | 2.71 | 3.43
